The source of these data is paper PMC5984089, “FBXW7 regulates DISC1 stability via the ubiquitin-proteosome system” (Molecular Psychiatry, 2017).

Several values for one entry are separate records, joined by “and”; a condition that tells them apart may be missing. Equal entries are not always repeated. Non-standard residues stand in square brackets, D forms with d. Residues, ends and D or L forms follow the SMILES beside them. No end group written: not given here. pT = C[C@@H](OP(=O)(O)O)[C@H](N)C(=O)O; pS = N[C@@H](COP(=O)(O)O)C(=O)O

One assay concerns DISC1, HEK293 cells. The experiment in a line: Endogenous DISC1 protein level in HEK293 cells, western blot. As to conditions: cycloheximide 50 μg ml^–1, Figure 1a, n=3. The class given is cell-based, human. The procedure:
HEK293 cells were sourced from ATCC (CRL-1573) and cultured as described in the manufacturer’s protocol. DMEM (SIGMA) supplemented with 10% fetal bovine serum, 2 mM L-glutamine, […] penicillin-streptomycin at 37 °C in a humidified atmosphere of 5% CO2. The cells were passaged at about 80% confluency. Cells were transfected with plasmid DNA using polyfect transfection reagent (Qiagen) according to the manufacturer’s instructions. HEK293 cells were treated with the pharmacological agents cycloheximide (C7698) and MG132 (M7449) (Sigma-Aldrich) or DISC1 disruptor peptides (custom synthesized by Severn Biotech) as described in the text.
Briefly, detergent-soluble proteins were isolated from cells by disruption in lysis buffer 20 mM Tris-HCl (pH 7.5), 150 mM NaCl, 1 mM Na2EDTA, 1 mM EGTA, 1% triton, 2.5 mM sodium pyrophosphate, 1 mM β-glycerophosphate, 1 mM Na3VO4, 1 μg ml^–1 leupeptin, 10 mM DTT with Roche protease inhibitor, phosSTOP (Roche, 04906837001). Detergent-insoluble proteins were removed by centrifugation at 10 000 g for 10 min, and the soluble fraction was retained. Cell lysates were adjusted to equal protein amount (1 μg μl^–1) using cell lysis buffer. Cell lysates normalized for the protein concentration were incubated with mouse IgG (Millipore, 12487) Protein A agarose beads for 2 h at 4 °C. […] The complexes were analyzed on SDS PAGE. […]

Assay [1] deals with purified protein complex containing 6His-FBXW7 and Skp1, Q969H0;P63208. Put plainly: peptide array overlay, anti-6His detection, densitometry. As to conditions: read off a plot.
Assay [2] deals with purified protein complex containing 6His-FBXW7 and Skp1. The experiment in a line: Peptide array overlay with 6His-FBXW7/Skp1, substitution and truncation analysis. The settings on record: for binding potential for the FBXW7 complex vs dually-phosphorylated control sequence: densitometry of 6His probe. Type of assay: binding, human. From the text:
Peptide libraries were produced by automatic SPOT synthesis and synthesized on continuous cellulose membrane supports on Whatman 50 cellulose membranes using Fmoc-chemistry with the AutoSpot-Robot ASS 222 (Intavis Bioanalytical Instruments, Köln, Germany) as previously described.[17] Phosphorylation of peptide array peptides by constitutively active GSK3 (14-306, Millipore UK) was undertaken as previously described.[18] Phosphorylation was detected using a phospho-serine specific antibody (ab9332, Abcam, UK).
Figure 2 FBXW7 binds DISC1 via a PD motif to regulate turnover of DISC1. (a) HEK293 cells were transfected with FLAG-tagged FBXW7 or FLAG-tagged FBXW7 without the F-Box substrate-binding domain (Δ-F). Lysates were prepared and blotted for DISC1, c-MYC, FLAG and GAPDH. Relative levels of DISC1 expression were calculated (right hand panel). *=P<0.05 as measured by Student’s t-test, n=3 (b) HEK293 cells were transfected with FLAG-FBXW7 and GFP-DISC1 (upper panels) or FLAG-FBXW7 and V5-DISC1 (lower panels). FLAG was immunoprecipitated from cell lysates and blotted for FLAG, GFP and V5. (c) HEK293 cells were transfected with FLAG-DISC1. FLAG was immunoprecipitated from cell lysates and blotted for FLAG and endogenous FBXW7. (d) and (e) Peptide arrays of sequences containing the DISC1 PD were overlayed with a purified protein complex containing 6His-FBXW7 and Skp1. Arrays were then probed for His tag. (f) Sequences of known FBXW7 substrates contain a PD that is also present in DISC1.
Figure 3 Substitution analysis pinpoints novel binding motifs for FBXW7. (a) Peptide array grids containing substitution of residues within the core binding motif domain ^197PTPPGSH^202 (with a range of native and non-native residues) were overlaid with a purified protein complex containing 6His-FBXW7 and Skp1. mD and mE are N-methyl aspartic acid and N-methyl glutamic acids respectively. (d) and (e) are the D-forms of aspartic acid and glutamic acid. (b) Arrays were then probed for 6His and spots that were over 200% of the control identified by densitometry.

In the next assay the target is T1, Skp1-FBXW7 complex (Homo sapiens, UniProt Q969H0).
T1 construct: human FBXW7 (residues 263–707); His6 (N, cleaved yes); made in house; host or cells: Escherichia coli
The experiment in a line: Isothermal titration calorimetry of DISC1 peptides. The class given is binding. As to conditions: for Kd: NANO ITC, 20 mM HEPES-Na (pH 7.4), 200 mM NaCl, 2 mM β-mercaptoethanol, mean ± s.d. from two to three independent measurements, read-out: dissociation constant (KD). The procedure:
Amino-terminal His6 tagged human FBXW7 (residues 263–707) and truncated Skp1 (Schulman et al., 2000) were co-expressed as a dicistronic message in Escherichia coli. The Skp1-FBXW7 complexes were purified by Ni2+-nitrilotriacetic acid (NTA) affinity chromatography followed by tobacco eth virus (TEV) protease cleavage of the His6 tag, and by anion exchange and gel filtration chromatography. For crystallization, the Skp1-FBXW7 complex was concentrated to 48 mg ml^–1 by ultrafiltration in 20 mM HEPES-Na (pH 7.4), 200 mM NaCl and 5 mM dithiothreitol (DTT). The DISC1 peptides were synthesized chemically and purified by HPLC.
All measurements were performed at 25 °C with a NANO ITC System (TA Instruments, New Castle, DE, USA). Protein samples were dialyzed against a solution containing 20 mM HEPES-Na (pH 7.4), 200 mM NaCl, and 2 mM β-mercaptoethanol. Typically, the concentrations of Skp1-FBXW7 and DISC1 peptides were […] and 1 mM, respectively. Titration data were analyzed using the TA Nano Analyze software, and the reported dissociation constants and their standard deviations were derived from two to three independent measurements.
To test whether phosphorylation of both the Thr198 and Ser202 sites in DISC1 is required for binding to FBXW7, we used isothermal titration calorimetry (ITC) to measure the binding affinity of various phosphorylated DISC1 peptides to the Skp1-FBXW7 complex (Supplementary Figure 5). […] Thus, specific interaction of DISC1 with the Skp1-FBXW7 complex requires simultaneous phosphorylation at Thr198 and Ser202 within the DISC1 PD motif.
A general note: ITC needs no label: the signal is the heat of the interaction.

Assay [3] addresses Skp1-FBXW7 complex (human FBXW7 residues 263-707 with truncated Skp1, His6 tag cleaved) (UniProt Q969H0). Put plainly: ITC; 25 °C, NANO ITC System; 20 mM HEPES-Na (pH 7.4), 200 mM NaCl, 2 mM β-mercaptoethanol; Skp1-FBXW7 and DISC1 peptides typically 50 mM and 1 mM (so in the source); two to three independent measurements.
Assay [4] addresses T2, human FBXW7 (residues 263-707) (human, UniProt Q969H0 263-707).
T2 construct: human FBXW7, residues 263-707; The FBXW7 chain of m1, written alone for the pairs inside the crystal structure; also called Fbw7; source: E. coli, co-expressed with truncated Skp1, purified as the complex; not shown: His6, N-terminal, cleaved
Put plainly: crystal structure; Skp1-FBXW7 mixed with a twofold molar excess of the DISC1 peptide; crystallised from 100 mM HEPES-Na (pH 7.4), 1.2 M Li2SO4, hanging drop, 4 °C; one complex in the asymmetric unit. The settings on record: both partners purified.

Setting [5] is: ITC, 25 °C, pH 7.4, singly phosphorylated peptides.

T1 sequence (Q969H0 263-707, one chain of several): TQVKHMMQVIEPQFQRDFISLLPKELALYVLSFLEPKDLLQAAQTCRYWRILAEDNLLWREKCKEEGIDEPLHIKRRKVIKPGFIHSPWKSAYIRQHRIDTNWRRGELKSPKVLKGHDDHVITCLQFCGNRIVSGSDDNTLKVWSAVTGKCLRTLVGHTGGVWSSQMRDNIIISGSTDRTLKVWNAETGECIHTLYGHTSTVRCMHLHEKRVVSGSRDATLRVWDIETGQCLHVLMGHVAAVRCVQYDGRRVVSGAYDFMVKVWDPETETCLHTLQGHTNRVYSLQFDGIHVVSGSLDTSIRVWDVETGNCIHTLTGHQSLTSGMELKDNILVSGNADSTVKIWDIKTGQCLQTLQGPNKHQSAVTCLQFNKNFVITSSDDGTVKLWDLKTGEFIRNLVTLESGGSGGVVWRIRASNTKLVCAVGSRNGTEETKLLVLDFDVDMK
T2 sequence (Q969H0 263-707): as the sequence (Q969H0 263-707, one chain of several) above

As to `C[C@@H]1C[C@@H]([C@H](O)CC2CC(=O)NC(=O)C2)C(=O)[C@@H](C)C1` [cycloheximide, reference compound], the “endogenous DISC1 level after cycloheximide” value in the assay on DISC1, HEK293 cells is recorded as “rapidly decreased”. Turning to “DISC1 peptide (residues 197-203, phosphorylated at Thr198 and Ser202) pT198d (D-Asp); pS202mE (N-methyl Glu)”, the percent of parent in assay [1] was 220 % of control and 190 % of control. As to “DISC1 peptide (residues 197-203, phosphorylated at Thr198 and Ser202) pT198e (D-Glu); pS202mE (N-methyl Glu)”, in assay [1], the percent of parent was 210 % of control and 280 % of control. Consider “GmDPPGmEH [I14, substituted DISC1 PD core peptide GmDPPGmEH]”, for which the “binding potential for the FBXW7 complex vs dually-phosphorylated control sequence” value in assay [2] is “more than a twofold increase in binding potential”. Take “DISC1 peptide (residues 197-203, phosphorylated at Thr198 and Ser202) pT198E; pS202mD (N-methyl Asp)”: the percent of parent in assay [1] is 230 % of control. Broadly, the Kd is the concentration at which binding is half-saturated. In the case of `CC(C)[C@H](NC(=O)[C@H](CCC(=O)O)NC(=O)[C@@H]1CCCN1)C(=O)N1CCC[C@H]1C(=O)N1CCC[C@H]1C(=O)N[C@H](C(=O)N1CCC[C@H]1C(=O)N1CCC[C@H]1C(=O)NCC(=O)N[C@@H](COP(=O)(O)O)C(=O)N[C@@H](Cc1c[nH]cn1)C(=O)N[C@@H](CO)C(=O)N[C@@H](C)C(=O)N[C@@H](Cc1ccccc1)C(=O)N[C@H](C(=O)O)[C@@H](C)O)[C@@H](C)OP(=O)(O)O` [DISC1^193–207/pT198/pS202] (H-PEVPP[pT]PPG[pS]HSAFT-OH), the Kd at Skp1-FBXW7 complex (ITC, 25 °C) is 1 ± 0.2 µM.

For the molecule “GmEPPGmEH [I11, substituted DISC1 PD core peptide GmEPPGmEH]”, in assay [2], the “binding potential for the FBXW7 complex vs dually-phosphorylated control sequence” value is recorded as “more than a twofold increase in binding potential”.

On to `C[C@@H](OP(=O)(O)O)[C@H](NC(=O)[C@@H]1CCCN1)C(=O)N1CCC[C@H]1C(=O)N1CCC[C@H]1C(=O)NCC(=O)N[C@@H](COP(=O)(O)O)C(=O)N[C@@H](Cc1c[nH]cn1)C(=O)O` [DISC1^197–203/pT198/pS202] (H-P[pT]PPG[pS]H-OH), for which, on Skp1-FBXW7 complex (ITC, 25 °C), the Kd is 17 ± 2 µM.

With “DISC1 peptide (residues 197-203, phosphorylated at Thr198 and Ser202) P197G; pT198d (D-Asp); pS202mE (N-methyl Glu)”, the percent of parent in assay [1] is 250 % of control. For “DISC1^193–207/pT198: singly phosphorylated DISC1 peptide (PEVPP[pT]PPGSHSAFT)”, the “measurable enthalpy signal / ITC signal” value with Skp1-FBXW7 complex (setting [5]) is “neither of the singly phosphorylated DISC1^193–207/pT198 and DISC1^193–207/pS202 peptides gave a measurable enthalpy signal”; with Skp1-FBXW7 complex (ITC, 25 °C, pH 7.4; singly phosphorylated peptides; pT198)), “No ITC signal”. For “DISC1 peptide (residues 197-203, phosphorylated at Thr198 and Ser202) pT198E; pS202d (D-Asp)”, the percent of parent in assay [1] was 210 % of control. Take “DISC1^193–207/pS202: singly phosphorylated DISC1 peptide (PEVPPTPPG[pS]HSAFT)”: the “measurable enthalpy signal / ITC signal” value was “neither of the singly phosphorylated DISC1^193–207/pT198 and DISC1^193–207/pS202 peptides gave a measurable enthalpy signal” with Skp1-FBXW7 complex (setting [5]); “No ITC signal” with Skp1-FBXW7 complex (ITC, 25 °C, pH 7.4; singly phosphorylated peptides; pS202)). Turning to PTPPGSH, the “association of FBXW7 complex / core binding sequence” value in assay [2] (phosphorylation and truncation analysis) is “minimum core binding sequence within the PD domain”.

B1: DISC1 peptide (residues 193-207, phosphorylated at Thr198 and Ser202) (peptide, UniProt Q9NRI5 193-207, looked up)
peptide: PEVPP[pT]PPG[pS]HSAFT
notes: printed residues: Pro193, Glu194, Val195, Pro196, Pro197, Thr198, Pro199, Pro200, Gly201, Ser202, His203; also called 15-residue core peptide; source: synthetic peptide, purified by HPLC
In turn, B1 registered a dissociation constant (Kd) in assay [3] of 1 µM. Also, the binding result in assay [4] was “binds”.

B2: DISC1 peptide (residues 197-203, phosphorylated at Thr198 and Ser202) (peptide)
peptide: P[pT]PPG[pS]H
In the case of B2, the Kd in assay [3] stood at 17 µM.
